Test results published in patent US20240026407A1, “MODIFICATION OF SAPONINS” (GLAXOSMITHKLINE BIOLOGICALS SA, priority 2020, published 2024).

Key:
Type in all cases: biochemical, Quillaja saponaria
[1] = Experiment 6-1: screening of rhamnosidases for derhamnosylation of saponins in treated bark extract (2%), QS-17 2296 to QS-18 2150 (PAR %); conditions: TBE 2%, pH 7.5, 30 degC, 18 h; TIC peak area ratio percent of rhamnosylated starting saponin to derhamnosylated product, LCMS/MS; negative controls 4.876, 5.225
[2] = Experiment 6-1: screening of rhamnosidases for derhamnosylation of saponins in treated bark extract (2%), desglucosyl-QS-17 2134 to QS-21 1988 (PAR %); conditions: TBE 2%, pH 7.5, 30 degC, 18 h; TIC peak area ratio percent, LCMS/MS; negative controls 2.719, 2.158
[3] = Experiment 6-1: screening of rhamnosidases for derhamnosylation of saponins in treated bark extract (2%), QS-17 2310 to QS-18 2164 (PAR %); conditions: TBE 2%, pH 7.5, 30 degC, 18 h; TIC peak area ratio percent, LCMS/MS; negative controls 3.061, 2.429
[4] = Experiment 6-2: screening of rhamnosidases for derhamnosylation of saponins in treated bark extract (25%), relative % of Left, Middle and Right Peak by UV HPLC; conditions: TBE 25%, pH 7.4, 19.5 h; for Left Peak: mainly QS-17 family, negative control 24%; for Middle Peak: mainly QS-18 and desglucosyl-QS-17 family, negative control 50%; for Right Peak: mainly QS-21 family, negative control 26%
[5] = Experiment 6-3: screening of rhamnosidases for derhamnosylation of saponins in crude bark extract (80%), relative % of Left, Middle and Right Peak by UV HPLC; conditions: CBE 80%, pH 7.4, 30 degC, 19.5 h; for Left Peak: mainly QS-17 family, negative control 27%; for Middle Peak: mainly QS-18 and desglucosyl-QS-17 family, negative control 48%; for Right Peak: mainly QS-21 family, negative control 26%
Description: Selected variants were expressed and lysed as in the method of experiment 6-1.
Crude bark extract (CBE) solution was adjusted to pH 7.4 by addition of NaOH (2M). 20 uL clarified lysate was transferred into fresh 96 well PCR plates. 80 uL CBE solution (pH 7.4) was added to each well of lysate to a final concentration of 80%. Plates were incubated at 30 degC with shaking for 19.5 h.
Quenched with 100 uL MeCN+2% AcOH and shaken at room temperature for 10 mins prior to centrifugation (10 min, 4 degC) to remove particulates. Samples were analysed by UV HPLC using method of Experiment 4-4.
Three key peaks of interest are apparent using this chromatography: Left Peak (retention time approximately 2.30-2.35 min) comprising mainly QS-17 family components; Middle Peak (retention time approximately 2.37-2.42 min) comprising mainly QS-18 family components and desglucosyl-QS-17 family components; and Right Peak (retention time approximately 2.44-2.50 min) comprising mainly QS-21 family components. Peak identity was supported by MS/MS.
Enzyme mediated hydrolysis of the alpha-O-rhamnosylation at the C2 position of the arabinofuranose moiety of QS-17 family components leads to a decrease in Left Peak and an increase in Middle Peak due to formation of QS-18 family components. Enzyme mediated hydrolysis of the alpha-O-rhamnosylation at the C2 position of the arabinofuranose moiety of desglucosyl-QS-17 family components leads to a decrease in Middle Peak and an increase in Right Peak due to formation of QS-21 family components.
The relative percentage of each peak was determined. A decrease in Left Peak and a concomitant increase in Middle Peak and Right Peak is observed for enzymes active under these conditions.

[6] = Experiment 6-1: specificity of rhamnosidases towards other rhamnose residues (C3 saccharide rhamnose, C28 saccharide rhamnose); conditions: TBE 2%, pH 7.5, 30 degC, 18 h; LCMS/MS; negative controls 0.18, 0.17

B1: 1079 (protein, listed as Lunatimonas lonarensis)
chain: MSMIRILSLLFLWMLSFSLVAQSTFSLQKLKVDHQENPLGIETASPVFSWQMQVAGSERGVYQKAYRIQVSDSHGALIWDSQQVSSDRSVGIRYQGEKLRPITAYTWSLTVWNQSDHSQTEIGKFETGWMDSPNAWKNAEWIGGDSEDLVLYAHALAVFKAGVTIQLDQESKSTRAAFLLGGNDVRLMKKNLNILQMESGRDGSYVGFELDISQVNGTEEGLALLHAYRVGYHADDQVGTPFHSMPIPQRLIHEGNKYEPHDLFLECNLGIFQVYLNGTENENKISPNDPSKPSYVAQGLNLNPMGEGGNYINFPLLGDIGFKTDSGQLATFSNLTISNYRRPGNVLFSEAESTISIFDKHPNIRAIAGRYQVGTDNKAVLALEDPSRNAPPMLRTTFTTQAKKIKKARIYATARGIYEMYLNGKRVGQDYFNPGLTQYNKNHQYQIYEVTDALESNAANAWGAWLSEGWWSGHITFSGGNWNFFGDRQSFLGTLLIEYEDGTVQEINTQPQSWKLFTDGPILNGSFFQGEVYDANKESVLTGWSLAQFDDSSWKSAQNVPLEGTTYTGPMTNGTLDYKQLTLSAQNDPTPTIIRRLKAVSMEEVRPGVFVYDMGQNMVGVPKITLSHGHQGDTVILRFAEVKYPDLPAYHPHSGMIMMENIRAALTHDIYIRKGGDEVIQPRFTFHGYRYVEITGIKNAPPLNAVEGLVISSVDSIRSSYTTSNQDVNKLWENITWSMLGNFLSIPTDTPARNERMGWSGDINVFARTSTYLGEVLPFLKRHMMAMRDLQAANGKFADVTPVGNGFGGTLWGSAGIVLPWELFLQYGDTTILEENYEAMKAYLAFLETREDKDSGVQMEGPLGDWLSPEVNKNDNTQFFTAYQAYGYGILHQVAQILGKPTEAATFQAKFASRKKFLMDTYFDARTGKSIHSGVSTQGRGGSTAPGTQKGDPIDTQASYAIPLYLEVIDGDLQEKVLANLIATLARENVDDMGILRPAYSLMTGFIATAAINEAISRYGDPVHAYRLLQQTSYPSWLYSVKNGATTIWERLNSYTVEDGFGGNNSMNSFNHYSFGAVGAWMYMYSLGIQRHPEIPGFKKFRLQPQPDPDGKMTWAKGHYDSMYGRIHSEWKRGVDSWEYKATVPPNTSAVLVLPVKDLERVSEGGKMLTEVLGITLISRENGYITMELSSGSYTFSIE
Q: For B1, which “QS-17 (PAR %)” value [1] is on record?
A: 0.315%

Q: And the “Peak75 (PAR %)” value [2]?
A: 0.247%

Q: And the “Peak57 (PAR %)” value [3]?
A: 0.000%

Q: And the “Left Peak” value [4]?
A: 14%

Q: What about the “Middle Peak” value [4] of the same molecule?
A: 58%

Q: What about the “Right Peak” value [4] of the same molecule?
A: 28%

Q: What about the “Left Peak” value [5] of the same molecule?
A: 25%

Q: And the “Middle Peak” value [5]?
A: 48%

Q: And the “Right Peak” value [5]?
A: 27%

Q: And the “ratio PP/QS-21” value [6]?
A: 0.18

B2: 1027 (protein, listed as Dictyoglomus thermophilum)
chain: MKSSNIYSPFDLKCEFTTNPLGVDKKNPIFSWKLRHLEKNEKQTAYQVIVSSSLETINDNIGDVWDTGKVLSSEQVIKYEGKELEPCKVYFWKVRWWDSKDQESPFSVVNTFETGLMNEENWKAKWITKKEHKYEVYSPDGAPFGLNYTIAYAPMFRKSFSISKKIKRARVYIAGLGLYELYINGERIGDRVLDPGQTDYKKRVLYTVYDVSKNIRDGKNAIGVILGNGRYVKEYGYDFPKLIIQVLVEYEDDSIEWIVSDESWKTTYGPITLNSLYHGEIYDGRKEIKGWNLPDFDDSTWENAILAEPPGGKLYSEIYPPIRITKTIKPIKMWSPEPGTYVYDFGQNYTGWIKIKVRTNESGKEIRIRHAELTYEDGTLNYSTNRTALATDVYITKGEGYEEYEPRFTYHGFRYVEILGYPGVPTLEDIEGKVVHTAVESNGEFICSNELINKIHHNIIWGQLSNLMSIPTDCPQRDERMGWMGDAQLSAEEAIFNFDMIGFYRKYLNDIRDAQKENGSLSDVIPPYWSIYPGDPAWSTAYITIAWYLYQYYGDKYVLEEHYEGFKKYVEFLKKLAPDYIVSFYKYGDWCQPGTVRPKDNSGELTSTFYFYHDVITLSKIAKLLGKEADYKYYSELADKIKSAFNKKFLKEKAYASIPTELSEENVKALLEKYPEDIKDFLRQQFTILSSLGMFTSQTLNTLPLYLNLVPEDKVQDVLKTLLEDIIIRHDYHLDTGIVATRYIFDVLTSYGYDEVAYKIVNQKTYPSFGYMIEEGATTLWERWEKLTSTGMNSHNHIMFGSVDAWFYRVIAGVRVGEPGWNKIIFEPHPVGDLKYAKARLNTIKGEVEINWQKTENIFSMRISVPVNSEGEVHVPKLFERFVVKEGDNIIYEKKGDLEENEKYIVIRVGSGSYNFYMEKI
Q: Which results are given for B2?
A: QS-17 (PAR %) [1]: 0.324%; Peak75 (PAR %) [2]: 0.094%; Peak57 (PAR %) [3]: 0.053%; Left Peak [4]: 18%; Middle Peak [4]: 55%; Right Peak [4]: 27%; Left Peak [5]: 26%; Middle Peak [5]: 48%; Right Peak [5]: 26%; ratio PP/QS-21 [6]: 0.19

B3: 1039 (protein, listed as Lactobacillus acidophilus)
chain: MKITNILVNQMEHPLGFDLSNLRITFELTEMENIIGNVYKNISVGKVESEQPIYFEPDELYENNAFKINMELEPRTKYWVKIGVRNDNEVTSSNTWFETGKMDEKFYGKWITNKKDVENTLFKKDFELANKQIKSARLYSTTLGVYEVDLNGVKVGNEFLAPGFTNYDKIVQLQTYDVTKLVTKNSNNELVFSVGDGWYKGNLGFDGGQTNIYGDKKSILAELHVTYTDNSEQVISTDSSWLTTEGKIIKSSIYYGEDIDDTKDILDWSSVVILNKSTSIVRDRLSLPIMKKEVLKVKEIIHTPKNEIVLDFGQNHAGWPVFINRLARGKKITLQMGEILQDGNFYNKNLRLARAAFTYISDGEEKLIRPHFTYFGFRYVKISGVTDVNKDDFESWVLYSDLKQTGFIKTNNDKVNRLFKNVIWGQKSNFMDVPTDCPQRDERLGWTGDAEIFAPTASFNMNTYEFYKKYAKDMLVEQEDNKGMLPIIVPSLKQKSTGMAIWSDAATIIPWVTYRFFDDLGVLKQNYSQMKNWVDWITQNTKTKYLWIGQMQLGDWLSLDNGANPQGKTNEDYIASIYYFVSASIVSKAARLLHYDMESDYYENLARNIKTNILNEFVTEKGRIAIDTQTALVLALHFGLVHDYQKSQVVADLVKKVKDDNKHLQTGFVGTPFLLSVLSNNNQHHLAMDIFMQEDCPSWLYEVNMGATTIWERWNSVLPDGKMNPEGMNSLNHYSFGAVMMWMYQCVVGLNQFDAGFKEIYFAPKFDCRLKDIYSEFDSTYGKIKVEYHLETNEKHLIRMNLVIPFGVKMKVKLPRSAKYLINGKEKIGIVKLEYGKYDISYIPTKSYLNYYDLNSKLVDILDNNDLVKRIDQIDEKILQKVKRMGNTRSIFINKKIDELLDFEEISQEEKNQLVDILHKTIFIKLNLF
Q: Which “QS-17 (PAR %)” value [1] does the source give for B3 here?
A: 0.492%

Q: What about the “Peak75 (PAR %)” value [2] of the same molecule?
A: 0.683%

Q: What about the “Peak57 (PAR %)” value [3] of the same molecule?
A: 0.000%

Q: And the “Left Peak” value [4]?
A: 16%

Q: And the “Middle Peak” value [4]?
A: 57%

Q: What about the “Right Peak” value [4] of the same molecule?
A: 27%

Q: And the “Left Peak” value [5]?
A: 25%

Q: What about the “Middle Peak” value [5] of the same molecule?
A: 48%

Q: What about the “Right Peak” value [5] of the same molecule?
A: 27%

Q: And the “ratio PP/QS-21” value [6]?
A: 0.18

B4: 1041 (protein)
chain: MRAIRLRTEYLTEPLGLGITAPRLYWNADGGLRQTAYQVVARRGGETVWDTGKVASSRMTHVRYEGVPLGSRDRVDWSVVLWDEAGAAGPPAESWFELGLLDPADWTAEWITGDYTPEPDVRYPVDHFRRDFRVREPVLAARLYITAAGVYEAVLNGEPVSEARLGPGATDYRHRLHYQTFDVTSLLAADNVLEVRLADGWYRGSLGAFGATHVFGRETRLLAQLELTYPDGSTETVGSDERFRWSDDGPVRFADLQDGEVYDARLAPSYSGHARITTETMIPTAADNVPVTEHERFPARLLTTPSGARVLDFGQNLAGFVAFTVSGRAGQRLTLRLGEILDGAGEFTQRNFQLRKPVHEFGRDVEILLLTGQESEIKGELQPTPKQEVVFTASGGTDHYVTRFAVFGFRYALVETDLDIDPADFEAIAVYSAMEQTGTCVTSHEGVNRFLENTRWSMKGNFLDVPTDCPTRERLGWTGDAQVFFDTAAYLMDVGAFFRKWLRDVRDGQLADGKLSAVIPYNGTSMLYDTTGGSVGWADAVVLIPYRYWKRYGDESILRDCYDAMRRYAMFMITNAGPLDPEAAADNPHARYLYEKGVHLGDWLEAAEFRDPSPGRTPMPEEATAYLHYTMTHLAEIATVLGETADADLFAEYAQGAKAAYTHQFLRDGTLDTDRQAKLVRPLALGLADGDVKRRLEDRLVQAVKNRDFHVNTGFLSTPFVLPTLTAAGHPEIAYRMLDNEDAPSWLAEVKAGATTVWEDWEGKESRNHYSPGAVCQWLFDTVAGLRVTGENHFTIAPVPGGSLTSAQARYTSVYGTVASSWTRTGTDLHLTVTLPPNTTADVRLPNGTEHVVGPGTHEYTA
modifications: Frankia inefficax
Q: For B4, which “QS-17 (PAR %)” value [1] is on record?
A: 0.507%

Q: And the “Peak75 (PAR %)” value [2]?
A: 0.000%

Q: And the “Peak57 (PAR %)” value [3]?
A: 0.000%

Q: And the “Left Peak” value [4]?
A: 15%

Q: And the “Middle Peak” value [4]?
A: 55%

Q: And the “Right Peak” value [4]?
A: 30%

Q: And the “Left Peak” value [5]?
A: 25%

Q: And the “Middle Peak” value [5]?
A: 48%

Q: What about the “Right Peak” value [5] of the same molecule?
A: 27%

Q: What about the “ratio PP/QS-21” value [6] of the same molecule?
A: 0.16
